For one substance, OD450nm results are on record in patent US20160166675A1.

The test deals with purified EV71 virus-like particles (purified antigen solution of Example 5) (EV71 (enterovirus 71), C4a subtype) (UniProt B9VUU3). Nature of the test: indirect ELISA, VLP coated 1 ug/ml, control serum. Background: In an ELISA, binding on a coated surface is turned into a signal by an enzyme label.

Several values for one entry are separate records, joined by “and”; a condition that tells them apart may be missing. Equal entries are not always repeated.

For Negative serum, the OD450nm was 0.049 OD and 0.051 OD.
